In patent US20260250318A1, “COMPOSITIONS AND METHODS FOR CROSSING THE BLOOD BRAIN BARRIER” (VOYAGER THERAPEUTICS, INC., priority 2022, published 2026):

Assays:
[1] = target: T1, human ALPL expressed on cells (alkaline phosphatase tissue-nonspecific isozyme, NM_000478.4) (human, UniProt P05186 18-501); experiment: cell-based or functional assay
T1 sequence: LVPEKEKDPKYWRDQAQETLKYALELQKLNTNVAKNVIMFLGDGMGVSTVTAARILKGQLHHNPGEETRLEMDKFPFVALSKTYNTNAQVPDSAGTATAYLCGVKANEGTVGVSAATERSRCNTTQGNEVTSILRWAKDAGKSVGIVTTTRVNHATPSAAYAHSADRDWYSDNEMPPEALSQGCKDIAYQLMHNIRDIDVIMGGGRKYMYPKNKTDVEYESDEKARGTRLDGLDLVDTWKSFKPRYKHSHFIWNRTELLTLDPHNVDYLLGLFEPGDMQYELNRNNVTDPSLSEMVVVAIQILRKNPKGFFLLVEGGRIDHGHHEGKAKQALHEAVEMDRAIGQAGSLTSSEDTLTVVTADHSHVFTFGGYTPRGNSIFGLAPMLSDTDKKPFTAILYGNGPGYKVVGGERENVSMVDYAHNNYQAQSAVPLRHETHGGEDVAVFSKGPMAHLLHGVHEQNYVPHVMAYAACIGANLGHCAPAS

[2] = system: mouse cells derived from the midbrain area; experiment: scRNA-Seq and IHC of midbrain cells transduced by TTM-002; type: in vivo, SCID CB17 mice; details: for % GFP Cells/Cluster: AAV_TTM-002.GFP particles, GFP sorted midbrain cells; for % GFP Cells/Cluster / % Payload Cells/Cluster: 28 days; for % Payload Cells/Cluster: AAV_TTM-002.payload particles, midbrain scRNA-Seq
Protocol: AAV particles were generated with the TTM-002 capsid variant encapsulating a GFP transgene (AAV_TTM-002.GFP) or a payload driven by a heterologous CBA constitutive promoter (AAV_TTM-002.Payload).
Two tandem single cell RNA sequencing runs (scRNA-Seq) of mouse cells derived from the midbrain area were performed. In the first run, cells were pooled from two mice at day 28 post treatment with AAV_TTM-002.Payload particles. In the second run we treated with AAV_TTM-002.GFP particles, in the same manner but without xenografts. Orthotopic xenografts of MDA-MB-361-Luc #1 high passage cells grown as tumorspheres (in tumorsphere media; Sigma #C-28070) were injected (250,000 cells/2 μL/mouse) intracranially into 2-month old female SCID CB17 (Mutation: Icr-Prkdcscid/IcrIcoCrl) congenic immunodeficient mice (Charles River Laboratories). The injections were 2.5 mm (lateral),-1 mm (posterior) with respect to bregma, lowered-3 mm ventral and raised +0.5 mm dorsal to a final-2.5 mm ventral position. Two days later, dilutions of the AAV_TTM-002.Payload particles (run 1), or in the case without xenografts, dilutions of AAV_TTM-002.GFP particles (run 2) were prepared. IV injections of 100 μL (2.5e11 VG/animal) of the AAV_TTM-002.payload particles or AAV_TTM-002.GFP particles were administered through the tail veins of mice (n=5 mice per groups). At 7 days post-injection, mice from run 1 were imaged in an AmiHTX (Spectral Imager) for bioluminescence of the human tumor cells due to expression of luciferase in response to intraperitoneal luciferin injections.
At 28 days post-injection with the AAV_TTM-002.payload particles or AAV_TTM-002.GFP particles, two mice from each run were necropsied, brain samples were isolated, and the midbrain was dissected and isolated. The midbrain samples were then exposed to a cold protease inhibitor (Creative Biomart #NATE-0633) and were dissociated at 6 degrees centigrade. For the samples collected from the mice of run 1 (AAV_TTM-002.Payload particles), myelin depletion was performed (Miltenyi, #130-096-731), cells were filtered through a […] mesh to filter out neurons) and loaded on a 10X chromium G chip. scRNA-Seq was performed (10X Genomics) and samples were sequenced on a NextGen500 Sequencing machine (Illumina). For the samples collected from run 2 (AAV_TTM-002.GFP particles and no xenografts), the cells were not myelin depleted or filtered through […] mesh to include neurons. The cells isolated after run 2 were FACS sorted for GFP+/7AAD− (live GFP+ cells). The resultant cells were loaded on a 10× chromium G chip and the scRNA-Seq was run and processed (10× Genomics).
For run 1, the scRNA-Seq data was filtered to include cells with only greater than 1000 genes per cell and less than 5000, and less than 20 percent mitochondrial gene expression. For run 2, the scRNA-Seq data was filtered to include cells with only greater than 200 genes per cell and less than 5000, and less than 20 percent mitochondrial gene expression. The data were normalized, scaled, and integrated into one combined dataset. Clusters were generated with a resolution of 0.3 and each cluster identity was determined using a panel of cell type specific genes (e.g., as described in Brown et al., 2021. “Deep Parallel Characterization of AAV Tropism and AAV-Mediated Transcriptional Changes via Single-Cell RNA Sequencing”. Front. Immunol. 12:730825; the contents of which are hereby incorporated by reference in its entirety). The percentage of GFP sorted cells per cluster was calculated as was the percentage of payload expressing genes per cluster as parallel measures of TTM-002 transduction.

[3] = cluster Vascular smooth muscle cells (VSC)

B1: TTM-002 capsid variant (AAV particle comprising the TTM-002 AAV9 capsid variant) (other)
chain 1: MAADGYLPDWLEDNLSEGIREWWALKPGAPQPKANQQHQDNARGLVLPGYKYLGPGNGLDKGEPVNAADAAALEHDKAYDQQLKAGDNPYLKYNHADAEFQERLKEDTSFGGNLGRAVFQAKKRLLEPLGLVEEAAKTAPGKKRPVEQSPQEPDSSAGIGKSGAQPAKKRLNFGQTGDTESVPDPQPIGEPPAAPSGVGSLTMASGGGAPVADNNEGADGVGSSSGNWHCDSQWLGDRVITTSTRTWALPTYNNHLYKQISNSTSGGSSNDNAYFGYSTPWGYFDFNRFHCHFSPRDWQRLINNNWGFRPKRLNFKLFNIQVKEVTDNNGVKTIANNLTSTVQVFTDSDYQLPYVLGSAHEGCLPPFPADVFMIPQYGYLTLNDGSQAVGRSSFYCLEYFPSQMLRTGNNFQFSYEFENVPFHSSYAHSQSLDRLMNPLIDQYLYYLSKTINGHDSPHKSGQNQQTLKFSVAGPSNMAVQGRNYIPGPSYRQQRVSTTVTQNNNSEFAWPGASSWALNGRNSLMNPGPAMASHKEGEDRFFPLSGSLIFGKQGTGRDNVDADKVMITNEEEIKTTNPVATESYGQVATNHQSAQAQAQTGWVQNQGILPGMVWQDRDVYLQGPIWAKIPHTDGNFHPSPLMGGFGMKHPPPQILIKNTPVPADPPTAFNKDKLNSFITQYSTGQVSVEIEWELQKENSKRWNPEIQYTSNYYKSNNVEFAVNTEGVYSEPRPIGTRYLTRNL
chain 2: TAPGKKRPVEQSPQEPDSSAGIGKSGAQPAKKRLNFGQTGDTESVPDPQPIGEPPAAPSGVGSLTMASGGGAPVADNNEGADGVGSSSGNWHCDSQWLGDRVITTSTRTWALPTYNNHLYKQISNSTSGGSSNDNAYFGYSTPWGYFDFNRFHCHFSPRDWQRLINNNWGFRPKRLNFKLFNIQVKEVTDNNGVKTIANNLTSTVQVFTDSDYQLPYVLGSAHEGCLPPFPADVFMIPQYGYLTLNDGSQAVGRSSFYCLEYFPSQMLRTGNNFQFSYEFENVPFHSSYAHSQSLDRLMNPLIDQYLYYLSKTINGHDSPHKSGQNQQTLKFSVAGPSNMAVQGRNYIPGPSYRQQRVSTTVTQNNNSEFAWPGASSWALNGRNSLMNPGPAMASHKEGEDRFFPLSGSLIFGKQGTGRDNVDADKVMITNEEEIKTTNPVATESYGQVATNHQSAQAQAQTGWVQNQGILPGMVWQDRDVYLQGPIWAKIPHTDGNFHPSPLMGGFGMKHPPPQILIKNTPVPADPPTAFNKDKLNSFITQYSTGQVSVEIEWELQKENSKRWNPEIQYTSNYYKSNNVEFAVNTEGVYSEPRPIGTRYLTRNL
chain 3: MASGGGAPVADNNEGADGVGSSSGNWHCDSQWLGDRVITTSTRTWALPTYNNHLYKQISNSTSGGSSNDNAYFGYSTPWGYFDFNRFHCHFSPRDWQRLINNNWGFRPKRLNFKLFNIQVKEVTDNNGVKTIANNLTSTVQVFTDSDYQLPYVLGSAHEGCLPPFPADVFMIPQYGYLTLNDGSQAVGRSSFYCLEYFPSQMLRTGNNFQFSYEFENVPFHSSYAHSQSLDRLMNPLIDQYLYYLSKTINGHDSPHKSGQNQQTLKFSVAGPSNMAVQGRNYIPGPSYRQQRVSTTVTQNNNSEFAWPGASSWALNGRNSLMNPGPAMASHKEGEDRFFPLSGSLIFGKQGTGRDNVDADKVMITNEEEIKTTNPVATESYGQVATNHQSAQAQAQTGWVQNQGILPGMVWQDRDVYLQGPIWAKIPHTDGNFHPSPLMGGFGMKHPPPQILIKNTPVPADPPTAFNKDKLNSFITQYSTGQVSVEIEWELQKENSKRWNPEIQYTSNYYKSNNVEFAVNTEGVYSEPRPIGTRYLTRNL
- luciferase activity, fold change relative to pCMV6 transfected HEK 293T cells (ALPL transfected cells) [1]: 166 fold

B2: TTM-002: AAV9 capsid variant comprising HDSPHK (SEQ ID NO: 2) in loop IV (protein)
chain 1: B1 chain 1
chain 2: GHDSPHKSGQNQQT
- IHC co-staining of GFP with cell markers ([2]; brain samples, AAV_TTM-002.GFP): GFP co-localized with some but not all Olig2+ cells
- % GFP Cells/Cluster ([2]; cluster Astrocyte): 2.37%
- % Payload Cells/Cluster ([2]; cluster Astrocyte): 4.50%
- % GFP Cells/Cluster ([2]; cluster Committed Oligos-2): 0.00%
- % Payload Cells/Cluster ([2]; cluster Committed Oligos-2): 0.00%
- % GFP Cells/Cluster ([2]; cluster Committed Oligos): 0.00%
- % Payload Cells/Cluster ([2]; cluster Committed Oligos): 1.90%
- % GFP Cells/Cluster ([2]; cluster Endothelial-1): 3.45%
- % Payload Cells/Cluster ([2]; cluster Endothelial-1): 3.09%
- % GFP Cells/Cluster ([2]; cluster Endothelial-2): 6.58%
- % Payload Cells/Cluster ([2]; cluster Endothelial-2): 6.58%
- % GFP Cells/Cluster ([2]; cluster Macrophages): 0.00%
- % Payload Cells/Cluster ([2]; cluster Macrophages): 0.00%
- % GFP Cells/Cluster ([2]; cluster Mature Oligos): 0.00%
- % Payload Cells/Cluster ([2]; cluster Mature Oligos): 3.85%
- % GFP Cells/Cluster ([2]; cluster Microglia): 0.00%
- % Payload Cells/Cluster ([2]; cluster Microglia): 0.40%
- % GFP Cells/Cluster ([2]; cluster Oligodendrocytes): 0.00%
- % Payload Cells/Cluster ([2]; cluster Oligodendrocytes): 0.00%
- % GFP Cells/Cluster ([2]; cluster Pericytes): 0.77%
- % Payload Cells/Cluster ([2]; cluster Pericytes): 4.23%
- % GFP Cells/Cluster ([2]; cluster Vascular and leptomeningeal Cells (VLM)): 2.38%
- % Payload Cells/Cluster ([2]; cluster Vascular and leptomeningeal cells (VLM)): 0.00%
- % GFP Cells/Cluster [2, 3]: 1.03%
- % Payload Cells/Cluster [2, 3]: 1.72%
- proportion of payload positive cells per cell type ([2]; scRNA-Seq, AAV_TTM-002.Payload, day 28): endothelial cells had the highest proportion of payload positive cells
- proportion of GFP positive cells per cell type ([2]; scRNA-Seq, GFP+ sorted cells, AAV_TTM-002.GFP, day 28): endothelial cells had the highest proportion of GFP positive cells
